These results are taken from patent publication US20150203575A1 (Genentech, published 2015).

Assay [1] addresses T1, human COLEC12 expressed on cells (human, UniProt Q5KU26 1-742).
T1 construct: also called hCOLEC12; C-terminal his tagged hCOLEC12
As to the kind of experiment: flow cytometry, transfected 293T cells, 50 µg/ml.

Assay [2] addresses T2, BR3 expressed on cells (human, UniProt Q96RJ3 1-184).
T2 construct: Clone of the Origene human cDNA library
T2 sequence: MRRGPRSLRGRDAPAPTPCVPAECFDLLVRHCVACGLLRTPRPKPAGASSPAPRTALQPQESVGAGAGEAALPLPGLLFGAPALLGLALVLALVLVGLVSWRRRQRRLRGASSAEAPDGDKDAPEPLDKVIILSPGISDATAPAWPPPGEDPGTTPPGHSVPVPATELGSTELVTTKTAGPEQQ
As to the kind of experiment: flow cytometry, transfected 293T cells, 2 µg/ml.

The target of assay [3] is T3, IL-2Ra expressed on cells (human, UniProt P01589 22-272).
T3 construct: Clone of the Origene human cDNA library; also called Interleukin 2 receptor alpha
T3 sequence: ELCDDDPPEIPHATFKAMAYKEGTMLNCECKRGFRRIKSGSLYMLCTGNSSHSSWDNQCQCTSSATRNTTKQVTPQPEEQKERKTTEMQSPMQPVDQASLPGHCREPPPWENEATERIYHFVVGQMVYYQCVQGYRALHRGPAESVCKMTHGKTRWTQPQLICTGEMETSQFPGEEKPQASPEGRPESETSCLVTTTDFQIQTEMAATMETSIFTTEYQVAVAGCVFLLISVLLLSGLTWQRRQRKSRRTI
Kind of assay: flow cytometry, transfected 293T cells, 2 µg/ml.

For assay [4], the target named is T4, PSS8 expressed on cells (human, UniProt Q16651 30-343).
T4 construct: Clone of the Origene human cDNA library; also called Protease serine 8; prostasin
As to the kind of experiment: flow cytometry, transfected 293T cells, 2 µg/ml.

Assay [5] addresses T2, BR3 expressed on cells. As to the kind of experiment: flow cytometry, transfected 293T cells, 50 µg/ml.
Assay [6] addresses T3, IL-2Ra expressed on cells. Kind of assay: flow cytometry, transfected 293T cells, 50 µg/ml.
Assay [7] has as its target T4, PSS8 expressed on cells. Kind of assay: flow cytometry, transfected 293T cells, 50 µg/ml.
Assay [8] concerns the target T5, mouse CD99 expressed on 293T cells (mouse, UniProt Q8VCN6 29-175, sialylated O-glycans at Thr-45 and Thr-50 (cited as relevant for PILRα recognition)).
T5 construct: whole, on cells; also called mCD99; mCD99 transfectants
T5 sequence (looked up): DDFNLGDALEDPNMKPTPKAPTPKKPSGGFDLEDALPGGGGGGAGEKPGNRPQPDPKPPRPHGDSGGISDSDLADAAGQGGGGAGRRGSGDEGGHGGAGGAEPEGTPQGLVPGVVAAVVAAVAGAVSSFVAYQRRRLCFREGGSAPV
Kind of assay: flow cytometry, transfected 293T cells, 2 µg/ml; 293T-Neo: 0.

Assay [9] deals with T6, human NPDC1 expressed on cells (human, UniProt Q9NQX5 35-325).
T6 construct: also called hNPDC1; hNPCD1
T6 sequence: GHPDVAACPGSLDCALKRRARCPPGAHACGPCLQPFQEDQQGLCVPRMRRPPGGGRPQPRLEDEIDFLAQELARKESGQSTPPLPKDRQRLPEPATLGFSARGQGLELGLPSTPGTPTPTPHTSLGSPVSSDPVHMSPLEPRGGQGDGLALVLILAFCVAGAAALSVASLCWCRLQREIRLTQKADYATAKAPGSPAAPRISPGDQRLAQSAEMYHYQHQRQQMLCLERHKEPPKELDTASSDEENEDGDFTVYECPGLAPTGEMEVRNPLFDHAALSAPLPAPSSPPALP
The assay is described as above.

The target in assay [10] is T1, human COLEC12 expressed on cells. The description is as above.
For assay [11], the target named is T7, CLEC4G expressed on cells (human, UniProt Q6UXB4 1-293).
T7 construct: Clone of the Origene human cDNA library; also called C type lectin superfamily 4 member G
T7 sequence: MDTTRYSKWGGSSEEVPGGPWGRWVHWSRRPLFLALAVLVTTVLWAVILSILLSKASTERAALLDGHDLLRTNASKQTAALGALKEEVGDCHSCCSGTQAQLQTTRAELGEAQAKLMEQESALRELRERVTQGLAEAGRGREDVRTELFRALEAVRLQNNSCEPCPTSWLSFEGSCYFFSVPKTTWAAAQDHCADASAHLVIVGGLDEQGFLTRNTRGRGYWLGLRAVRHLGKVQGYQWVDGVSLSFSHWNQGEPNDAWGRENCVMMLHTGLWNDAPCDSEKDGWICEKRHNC
Kind of assay: flow cytometry, transfected 293T cells.

Assay [12] deals with T8, LRRTM4 expressed on cells (human, UniProt Q86VH4 31-590).
T8 construct: Clone of the Origene human cDNA library; also called Leucine rich repeat transmembrane neuronal 4
As to the kind of experiment: flow cytometry, transfected 293T cells.

Assay [13] deals with T3, IL-2Ra expressed on cells. Kind of assay: flow cytometry, transfected 293T cells.
Assay [14] deals with T5, mouse CD99 expressed on 293T cells. Kind of assay: flow cytometry, transfected 293T cells, ligand-expressing cells gated.
Assay [15] addresses T6, human NPDC1 expressed on cells. The assay is described as above.
Assay [16] deals with T1, human COLEC12 expressed on cells. The assay is described as above.
Assay [17] has as its target T9, HSV1 glycoprotein B expressed on 293T cells (herpes simplex virus type 1, UniProt P10211 31-904).
T9 construct: whole, on cells; also called HSV-1 gB; HSV1 gB
Described as above.

T1 sequence (Q5KU26 whole entry S522P/G606S): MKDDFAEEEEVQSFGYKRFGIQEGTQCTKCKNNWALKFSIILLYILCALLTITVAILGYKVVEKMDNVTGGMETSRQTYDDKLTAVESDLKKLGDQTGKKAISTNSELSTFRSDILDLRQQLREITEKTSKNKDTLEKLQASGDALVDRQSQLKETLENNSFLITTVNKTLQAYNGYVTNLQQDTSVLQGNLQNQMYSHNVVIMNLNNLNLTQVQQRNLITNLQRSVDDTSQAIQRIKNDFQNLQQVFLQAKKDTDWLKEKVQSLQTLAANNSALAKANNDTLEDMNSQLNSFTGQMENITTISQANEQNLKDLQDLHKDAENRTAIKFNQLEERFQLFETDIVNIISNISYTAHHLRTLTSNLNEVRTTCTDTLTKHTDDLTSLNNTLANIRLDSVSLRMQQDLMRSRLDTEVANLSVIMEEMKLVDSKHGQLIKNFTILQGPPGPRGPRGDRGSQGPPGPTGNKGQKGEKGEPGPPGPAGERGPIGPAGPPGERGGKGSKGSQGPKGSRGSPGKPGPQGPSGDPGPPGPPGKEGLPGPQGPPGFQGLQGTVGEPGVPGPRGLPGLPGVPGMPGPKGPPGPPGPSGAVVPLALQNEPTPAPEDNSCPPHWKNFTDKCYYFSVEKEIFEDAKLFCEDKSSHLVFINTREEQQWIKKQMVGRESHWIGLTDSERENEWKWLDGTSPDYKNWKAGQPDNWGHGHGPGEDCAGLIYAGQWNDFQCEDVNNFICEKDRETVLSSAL
T4 sequence (Q16651 30-343 limits assumed): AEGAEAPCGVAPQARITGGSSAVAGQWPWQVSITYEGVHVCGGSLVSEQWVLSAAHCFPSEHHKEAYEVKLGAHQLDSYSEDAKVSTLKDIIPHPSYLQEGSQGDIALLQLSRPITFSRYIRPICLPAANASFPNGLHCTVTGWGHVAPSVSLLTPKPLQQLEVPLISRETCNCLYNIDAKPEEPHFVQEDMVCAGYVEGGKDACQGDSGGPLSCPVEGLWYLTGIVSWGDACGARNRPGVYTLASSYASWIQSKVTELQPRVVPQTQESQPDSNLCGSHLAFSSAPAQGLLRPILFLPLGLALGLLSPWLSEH
T8 sequence (Q86VH4 31-590 limits assumed): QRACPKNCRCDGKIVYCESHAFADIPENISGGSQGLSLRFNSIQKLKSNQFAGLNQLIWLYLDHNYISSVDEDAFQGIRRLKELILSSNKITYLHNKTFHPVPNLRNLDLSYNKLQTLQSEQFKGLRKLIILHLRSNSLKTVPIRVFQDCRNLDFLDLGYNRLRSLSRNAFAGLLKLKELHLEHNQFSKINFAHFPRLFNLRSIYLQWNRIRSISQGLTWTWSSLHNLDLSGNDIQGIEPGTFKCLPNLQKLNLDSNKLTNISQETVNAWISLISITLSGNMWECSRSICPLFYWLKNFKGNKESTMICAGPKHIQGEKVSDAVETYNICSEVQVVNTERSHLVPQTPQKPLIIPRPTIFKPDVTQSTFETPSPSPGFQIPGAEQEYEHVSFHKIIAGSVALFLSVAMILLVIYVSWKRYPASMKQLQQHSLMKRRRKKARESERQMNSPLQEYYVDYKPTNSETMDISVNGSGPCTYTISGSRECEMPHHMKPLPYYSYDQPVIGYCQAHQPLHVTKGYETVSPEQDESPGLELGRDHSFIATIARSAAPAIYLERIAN

B1: mPILRα-Fc (Fc fusion)
chain: not shown
notes: also called mouse PILRα-Fc; WT mPILRα-Fc; not shown: Fc of mouse IgG2a (PILRα-mIgG2a, called PILRα-Fc)
Turning to B1, the “% cells in lower right quadrant” value in [1] was 10.1%; with BR3 expressed on cells [2], 34.1%; in assay [3] it was 14.1%; with PSS8 expressed on cells [4] it was 0.024%; in the assay with BR3 expressed on cells [5] it was 53.3%; in assay [6], 55.7%. Moreover, the “% cells in lower right quadrant” value with PSS8 expressed on cells [7] is 30.6%; in assay [8], 34%; in assay [9], 29.6%; in assay [10] it was 0.082%.

B2: mPILRαR133A-Fc (Fc fusion)
chain: not shown
notes: Arg mutant of mPILRα-Fc; also called mPILRα133A-Fc; variant mPILRα (R133A); not shown: Fc of mouse IgG2a (PILRα-mIgG2a, called PILRα-Fc)
With B2, the binding result in assay [11] was “no binding (tested: 50 µg/ml)”; in assay [12], “no binding (tested: 50 µg/ml)”; in [13] it was “no binding (tested: 50 µg/ml)”; in [14], “no binding”; in assay [15], “no binding”; in assay [16], “no binding”. In assay [17], the binding result is given as “no binding”.
